In series [1] the target is T1, GST-OCT4 (human, UniProt Q01860 1-360). Description: EMSA; soluble OCT4, 30 ng per lane; LI-COR Odyssey EMSA kit 1x binding buffer (composition and pH not given), 2.5 mM DTT, 0.25% Tween-20, 1 ug poly(dI-dC) in 20 ul, 20 min at RT; 4% native PAGE in 0.5x TBE. The following applies: protein: recombinant; tags: GST (N-terminal, pAcG2T); label: IRDye 700; (only one strand printed). On the technique in general: In EMSA bound probe runs differently from free probe, usually more slowly.

Series [2] deals with T1, GST-OCT4. Description: competition; 50-fold excess unlabeled oligonucleotide abolishes complex; LI-COR Odyssey EMSA kit 1x binding buffer (composition and pH not given), 2.5 mM DTT, 0.25% Tween-20, 1 ug poly(dI-dC) in 20 ul, 20 min at RT; 4% native PAGE in 0.5x TBE. The following applies: protein: recombinant; tags: GST (N-terminal, pAcG2T); label: none; (only one strand printed).

T1 sequence (Q01860 whole entry): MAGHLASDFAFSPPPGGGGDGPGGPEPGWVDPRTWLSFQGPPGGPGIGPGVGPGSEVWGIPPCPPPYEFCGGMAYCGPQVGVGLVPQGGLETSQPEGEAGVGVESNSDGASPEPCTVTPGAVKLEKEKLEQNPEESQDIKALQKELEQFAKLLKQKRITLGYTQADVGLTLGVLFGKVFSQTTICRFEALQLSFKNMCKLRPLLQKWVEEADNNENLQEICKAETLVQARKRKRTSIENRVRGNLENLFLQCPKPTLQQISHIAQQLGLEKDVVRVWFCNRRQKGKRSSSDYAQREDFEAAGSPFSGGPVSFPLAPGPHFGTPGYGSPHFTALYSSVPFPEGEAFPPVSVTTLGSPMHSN

B1: octamer oligonucleotide (Ig heavy chain enhancer) (dsDNA)
DNA 1: GCCGAATTTGCATATTTGCATGGCTG
DNA 2: CAGCCATGCAAATATGCAAATTCGGC
B1: the binding result with GST-OCT4 [1] is recorded as “binds”.

B2: unlabeled octamer oligonucleotide (dsDNA)
DNA 1: GCCGAATTTGCATATTTGCATGGCTG
DNA 2: CAGCCATGCAAATATGCAAATTCGGC
For B2, the binding result with GST-OCT4 [2] is recorded as “binds”.

These data come from PMC5122344, “Nuclear delivery of recombinant OCT4 by chitosan nanoparticles for transgene-free generation of protein-induced pluripotent stem cells”.
